Experimental data from patent US20130143798A1 (Novo Nordisk, published 2013).
Numbered stars: 1 amine (or outer) side, 2 acyl side, 3 side chain; on linkers, the order of the positions; unused ones are H or OH. Square brackets hold non-standard residues; d marks the D form. Side chains are listed from the residue outwards. Ends that are not written are not given here. * marks the point of attachment. C18 diacid = O=C(O)CCCCCCCCCCCCCCCCC(=O)*; pY = N[C@@H](Cc1ccc(OP(=O)(O)O)cc1)C(=O)O; γGlu = O=C(O)[C@H](CCC(=O)[*:2])N[*:1]; AEEA = NCCOCCOCC(=O)O

B1: N^ε29 … (peptide)
peptide: HSQGTFTSDYSKYLDSKRAQEFVQWLLNK([AEEA-AEEA-γGlu-C18 diacid])-NH2
modifications: N-terminus assumed
SMILES: CC(C)C[C@H](NC(=O)[C@H](CC(C)C)NC(=O)[C@H](Cc1c[nH]c2ccccc12)NC(=O)[C@H](CCC(N)=O)NC(=O)[C@@H](NC(=O)[C@H](Cc1ccccc1)NC(=O)[C@H](CCC(=O)O)NC(=O)[C@H](CCC(N)=O)NC(=O)[C@H](C)NC(=O)[C@H](CCCNC(=N)N)NC(=O)[C@H](CCCCN)NC(=O)[C@H](CO)NC(=O)[C@H](CC(=O)O)NC(=O)[C@H](CC(C)C)NC(=O)[C@H](Cc1ccc(O)cc1)NC(=O)[C@H](CCCCN)NC(=O)[C@H](CO)NC(=O)[C@H](Cc1ccc(O)cc1)NC(=O)[C@H](CC(=O)O)NC(=O)[C@H](CO)NC(=O)[C@@H](NC(=O)[C@H](Cc1ccccc1)NC(=O)[C@@H](NC(=O)CNC(=O)[C@H](CCC(N)=O)NC(=O)[C@H](CO)NC(=O)[C@@H](N)Cc1c[nH]cn1)[C@@H](C)O)[C@@H](C)O)C(C)C)C(=O)N[C@@H](CC(N)=O)C(=O)N[C@@H](CCCCNC(=O)COCCOCCNC(=O)COCCOCCNC(=O)CC[C@H](NC(=O)CCCCCCCCCCCCCCCCC(=O)O)C(=O)O)C(N)=O
B2: N^ε27 ([2-[2-[2-[[2-[2-[2-[[(4S)-5-hydroxy-4-[(18-hydroxy-18-oxooctadecanoyl)amino]-5-oxopentanoyl]amino]ethoxy]ethoxy]acetyl]amino]ethoxy]ethoxy]acetyl]) … (peptide)
peptide: HSQGTFTSDYSKYLDSKRAQEFVQWLK([AEEA-AEEA-γGlu-C18 diacid])NT-NH2
modifications: N-terminus assumed
SMILES: CC(C)C[C@H](NC(=O)[C@H](Cc1ccc(O)cc1)NC(=O)[C@H](CCCCN)NC(=O)[C@H](CO)NC(=O)[C@H](Cc1ccc(O)cc1)NC(=O)[C@H](CC(=O)O)NC(=O)[C@H](CO)NC(=O)[C@@H](NC(=O)[C@H](Cc1ccccc1)NC(=O)[C@@H](NC(=O)CNC(=O)[C@H](CCC(N)=O)NC(=O)[C@H](CO)NC(=O)[C@@H](N)Cc1c[nH]cn1)[C@@H](C)O)[C@@H](C)O)C(=O)N[C@@H](CC(=O)O)C(=O)N[C@@H](CO)C(=O)N[C@@H](CCCCN)C(=O)N[C@@H](CCCNC(=N)N)C(=O)N[C@@H](C)C(=O)N[C@@H](CCC(N)=O)C(=O)N[C@@H](CCC(=O)O)C(=O)N[C@@H](Cc1ccccc1)C(=O)N[C@H](C(=O)N[C@@H](CCC(N)=O)C(=O)N[C@@H](Cc1c[nH]c2ccccc12)C(=O)N[C@@H](CC(C)C)C(=O)N[C@@H](CCCCNC(=O)COCCOCCNC(=O)COCCOCCNC(=O)CC[C@H](NC(=O)CCCCCCCCCCCCCCCCC(=O)O)C(=O)O)C(=O)N[C@@H](CC(N)=O)C(=O)N[C@H](C(N)=O)[C@@H](C)O)C(C)C
B3: N^α-([His^24,Leu^27]-Glucagonyl)-N^ε[(4S)-4-carboxy-4-[[(4S)-4-carboxy-4-[[2-[2-[2-[[2-[2-[2-[[(4S)-4-carboxy-4-(17-carboxyheptadecanoylamino)butanoyl]amino]eth … (peptide)
peptide: HSQGTFTSDYSKYLDSRRAQDFVHWLLNTK
modifications: C-terminal Lys (position 30): N-epsilon acylated with the substituent printed in the name

molecular target: T1, glucagon receptor (UniProt P47871 26-477, limits assumed); experiment: cell-based or functional assay
T1 sequence (P47871 26-477 limits assumed): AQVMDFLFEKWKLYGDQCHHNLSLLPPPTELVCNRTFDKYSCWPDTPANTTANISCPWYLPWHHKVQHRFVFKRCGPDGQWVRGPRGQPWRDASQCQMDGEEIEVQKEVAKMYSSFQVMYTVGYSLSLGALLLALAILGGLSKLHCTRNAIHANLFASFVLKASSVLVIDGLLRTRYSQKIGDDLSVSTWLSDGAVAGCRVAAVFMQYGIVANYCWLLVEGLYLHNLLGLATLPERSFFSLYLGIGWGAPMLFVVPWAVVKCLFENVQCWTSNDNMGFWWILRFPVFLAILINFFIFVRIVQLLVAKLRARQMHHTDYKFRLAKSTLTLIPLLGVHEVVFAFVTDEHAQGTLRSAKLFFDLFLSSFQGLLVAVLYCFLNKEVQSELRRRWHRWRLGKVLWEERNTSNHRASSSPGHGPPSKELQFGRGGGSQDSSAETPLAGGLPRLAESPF

Row | Assay (I) Glucagon [EC50] | Binder
1 | 0.02 nM | HSQGTFTSDYSKYLDK([AEEA-AEEA-γGlu-C18 diacid])KKAQEFVQWLLNT
2 | 0.155 nM | HSQGTFTSDYSKYLDSRRAQDFVQK([AEEA-AEEA-γGlu-C18 diacid])LLNT
3 | 0.003 nM | B1
4 | 0.02 nM | HSQGTFTSDYSKYLDK([AEEA-AEEA-γGlu-C18 diacid])KRAQEFVQWLLNT
5 | 0.007 nM | B2
6 | 0.194 nM | HSQGTFTSDYSKYLDSRRAQDFVK([AEEA-AEEA-γGlu-C18 diacid])HLLNT
7 | 0.15 nM | HSQGTFTSDYSKYLDSRQAQEFVK([AEEA-AEEA-γGlu-C18 diacid])WLLNT
8 | 0.074 nM | HSQGTFTSDYSKYLDSRRAQEFVK([AEEA-AEEA-γGlu-C18 diacid])RLLNT
9 | 0.171 nM | HSQGTFTSDYSKYLDSRRAQDFVK([AEEA-AEEA-γGlu-C18 diacid])[pY]LLNT
10 | 0.022 nM | HSQGTFTSDYSKYLDSKRAQEFVK([AEEA-AEEA-γGlu-C18 diacid])WLLNT
11 | 0.022 nM | HSQGTFTSDYSKYLDSRRAQDFVQWLLK([AEEA-AEEA-γGlu-C18 diacid])T
12 | 0.009 nM | HSQGTFTSDYSKYLDSKKAQEFVK([AEEA-AEEA-γGlu-C18 diacid])WLLST

molecular target: T1, glucagon receptor; experiment: cell-based or functional assay; remark: another data set of the same source

Row | Assay (I) Glucagon [EC50] | Binder
13 | 0.189 nM | HSQGTFTSDYSKYLDSRRAQDFVQWLLK([γGlu-γGlu-AEEA-AEEA-γGlu-C18 diacid])P
14 | 0.1 nM | B3
15 | 0.141 nM | HSQGTFTSDYSKYLDSRRAQDFVQWLLK([γGlu-γGlu-γGlu-C18 diacid])T
16 | 1.58 nM | HSQGTFTSDYSK([γGlu-γGlu-AEEA-AEEA-γGlu-C18 diacid])YLDSRRAQDFVQWLLNP
17 | 0.058 nM | HSQGTFTSDYSKYLDSRRAK([γGlu-γGlu-AEEA-AEEA-γGlu-C18 diacid])DFVQWLLNT
18 | 0.093 nM | HSQGTFTSDYSKYLDSRRAQDFVQWLLK([γGlu-AEEA-AEEA-γGlu-γGlu-C18 diacid])T
19 | 0.45 nM | HSQGTFTSDYSKYLDK([γGlu-γGlu-AEEA-AEEA-γGlu-C18 diacid])RRAQEFVQRLLNT
20 | 0.142 nM | HSQGTFTSDYSKYLDSRRAQDFVKWLLNTP (Lys 24: N-epsilon acylated with the substituent printed in the name)
21 | 0.307 nM | HSQGTFTSDYSKYLDSRRAEDFVK([γGlu-γGlu-AEEA-AEEA-γGlu-C18 diacid])WLLST
22 | 0.094 nM | HSQGTFTSDYSKYLDSRRAQDFVK([γGlu-γGlu-γGlu-C18 diacid])WLLST
23 | 0.116 nM | HSQGTFTSDYSKYLDSRRAQDFVQWLLK([AEEA-AEEA-γGlu-γGlu-γGlu-C18 diacid])T
24 | 0.053 nM | HSQGTFTSDYSKYLDSRRAQEFVK([γGlu-γGlu-AEEA-γGlu-C18 diacid])WLLST
25 | 0.081 nM | HSQGTFTSDYSKYLDK([AEEA-AEEA-γGlu-γGlu-γGlu-C18 diacid])RRAQDFVQWLLNT
26 | 1.17 nM | HSQGTFTSDYSKYLDSRRAQDFVQWLK([γGlu-γGlu-AEEA-AEEA-γGlu-C18 diacid])NP
27 | 0.122 nM | HSQGTFTSDYSKYLDK([γGlu-AEEA-AEEA-γGlu-γGlu-C18 diacid])RRAQDFVQWLLNT
28 | 0.128 nM | HSQGTFTSDYSKYLDSRRAQDFVQWLLK([γGlu-γGlu-AEEA-AEEA-γGlu-C18 diacid])TP
29 | 2.2 nM | HSQGTFTSEYSKYLDSRRAQDFVK([γGlu-γGlu-AEEA-γGlu-C18 diacid])WLLST
30 | 0.115 nM | HSQGTFTSDYSKYLDSRRAQDFVK([AEEA-AEEA-γGlu-γGlu-γGlu-C18 diacid])WLLST
31 | 0.988 nM | HSQGTFTSDYSKYLDSRRAQDFVQK([γGlu-γGlu-AEEA-AEEA-γGlu-C18 diacid])LLNT
32 | 0.156 nM | HSQGTFTSDYSKYLDSRRAQDFVK([γGlu-γGlu-AEEA-AEEA-γGlu-C18 diacid])WLLNP
33 | 2.11 nM | HSQGTFTSDYSRYLDSRRAQDFVQWLK([γGlu-γGlu-AEEA-AEEA-γGlu-C18 diacid])NP
34 | 0.12 nM | HSQGTFTSDYSKYLDSRRAEEFVK([γGlu-γGlu-AEEA-γGlu-C18 diacid])WLLST
35 | 0.106 nM | HSQGTFTSDYSKYLDSRRAQDFVK([γGlu-AEEA-AEEA-γGlu-γGlu-C18 diacid])WLLST
36 | 0.105 nM | HSQGTFTSDYSKYLDK([γGlu-γGlu-AEEA-AEEA-γGlu-C18 diacid])RRAQDFVQWLLNT
37 | 0.127 nM | HSQGTFTSDYSRYLDSRRAQDFVK([γGlu-γGlu-AEEA-AEEA-γGlu-C18 diacid])WLLNT
